Test results reported in US20160250307A1 (IMMATICS BIOTECHNOLOGIES, published 2016).

Target: HLA-A*02 (human)
Assay: UV-ligand exchange, anti-b2m ELISA; grade: exchange yield >=50%

| peptide exchange yield [%] | Binder |
| --- | --- |
| 50 to 75 | SLWEGGVRGV |
| 50 to 75 | SMGDHLWVA |
| 50 to 75 | TLAAIIHGA |
| 50 to 75 | SLFEWFHPL |
| 50 to 75 | TLLKKISEA |
| 50 to 75 | YLITGNLEKL |
| 50 to 75 | SLIPAVLTV |
| 50 to 75 | VVLDDKDYFL |
| 50 to 75 | TLLDSPIKV |
| 50 to 75 | TVMDIDTSGTFNV |
| 50 to 75 | YLDDEKNWGL |
| 50 to 75 | YLDKNLTVSV |
| 50 to 75 | SVWFGPKEV |
| 50 to 75 | YAFPKSITV |
| 50 to 75 | SQADVIPAV |
| 50 to 75 | TLYALSHAV |
| 50 to 75 | SLHNGVIQL |
| 50 to 75 | SLWSVARGV |
| 50 to 75 | SLAVLVPIV |
| 50 to 75 | SLLSPEHLQYL |
| 50 to 75 | VLSQVYSKV |
| 50 to 75 | YLWDLDHGFAGV |

Second part, the binder before the results:

| Binder | peptide exchange yield [%] |
| --- | --- |
| ALLGKIEKV | 50 to 75 |
| RMLIKLLEV | 50 to 75 |
| RLFPDGIVTV | 50 to 75 |
| ALLNQHYQV | 50 to 75 |
| RLPPDTLLQQV | 50 to 75 |
| SILDIVTKV | 50 to 75 |
| RILPKVLEV | 50 to 75 |
| RLLDVLAPLV | 50 to 75 |
| LLADIGGDPFAA | 50 to 75 |
| LLIDDEYKV | 50 to 75 |
| KLSEAVTSV | 50 to 75 |
| RLFEENDVNL | 50 to 75 |
| KLDNNLDSV | 50 to 75 |
| KLTDHLKYV | 50 to 75 |
| NLASFIEQVAV | 50 to 75 |
| KLYDLELIV | 50 to 75 |

| Binder | peptide exchange yield [%] |
| --- | --- |
| SICNGVPMV | 50 to 75 |
| RLLDEQFAV | 50 to 75 |
| SLAESSFDV | 50 to 75 |
| GLAPGGLAVV | 50 to 75 |
| NVFDGLVRV | 50 to 75 |
| RLTESVLYL | 50 to 75 |
| RMSDVVKGV | 50 to 75 |
| QLLPNLRAV | 50 to 75 |
| RLAAFYSQV | 50 to 75 |
| HLAKVTAEV | 50 to 75 |
| ALLEMDARL | 50 to 75 |
| ALHEEVVGV | 50 to 75 |
| QLTPVLVSV | 50 to 75 |
| RLPDIPLRQV | 50 to 75 |
| LLHEENFSV | 50 to 75 |
| ALSSKPAEV | 50 to 75 |
